According to the supplement of paper PMC10567573:

B1: KCNA4 (parent)
chain: YQLGEEALLKFREDEGFVREEEDR

Variants of: B1
Experiment: protein stability index of a GFP-peptide fusion (GPS, HEK-293T) (PSI 1-6); higher = more stable
Settings: c terminus: a fixed tail appended
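Also: lentivirally expressed fusions sorted by FACS into six bins by GFP to DsRed ratio, PSI derived from sequencing read proportions per bin multiplied by bin number.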

Row | Variant | protein stability index
1 | YQLGEENLLKFREDEGFVREEEDR | 4.82
2 | YQLGEECLLKFREDEGFVREEEDR | 4.89
3 | YQLGEEQLLKFREDEGFVREEEDR | 4.1
4 | YQLGEEWLLKFREDEGFVREEEDR | 1.48
5 | YQLGEEHLLKFREDEGFVREEEDR | 4.56
6 | YQLGEEVLLKFREDEGFVREEEDR | 4.33
7 | YQLGEEELLKFREDEGFVREEEDR | 4.38
8 | YQLGEEPLLKFREDEGFVREEEDR | 4.59
9 | YQLGEELLLKFREDEGFVREEEDR | 4.8
10 | YQLGEEFLLKFREDEGFVREEEDR | 4.43
11 | YQLGEEYLLKFREDEGFVREEEDR | 4.27
12 | YQLGEEMLLKFREDEGFVREEEDR | 4.14
13 | YQLGEEILLKFREDEGFVREEEDR | 3.99
14 | YQLGEEKLLKFREDEGFVREEEDR | 5.36
15 | YQLGEESLLKFREDEGFVREEEDR | 4.52
16 | YQLGEEGLLKFREDEGFVREEEDR | 4.64
17 | YQLGEETLLKFREDEGFVREEEDR | 4.95
18 | YQLGEERLLKFREDEGFVREEEDR | 4.62
19 | YQLGEEDLLKFREDEGFVREEEDR | 4.23
20 | YQLGEEALLKFIEDEGFVREEEDR | 4.15
21 | YQLGEEALLKFPEDEGFVREEEDR | 5.62
22 | YQLGEEALLKFAEDEGFVREEEDR | 4.41
23 | YQLGEEALLKFKEDEGFVREEEDR | 4.92
24 | YQLGEEALLKFVEDEGFVREEEDR | 3.81

Row | Variant | protein stability index
25 | YQLGEEALLKFDEDEGFVREEEDR | 5.54
26 | YQLGEEALLKFMEDEGFVREEEDR | 4.06
27 | YQLGEEALLKFFEDEGFVREEEDR | 4.62
28 | YQLGEEALLKFYEDEGFVREEEDR | 4.59
29 | YQLGEEALLKFEEDEGFVREEEDR | 5.21
30 | YQLGEEALLKFCEDEGFVREEEDR | 3.02
31 | YQLGEEALLKFSEDEGFVREEEDR | 4.66
32 | YQLGEEALLKFWEDEGFVREEEDR | 2.34
33 | YQLGEEALLKFTEDEGFVREEEDR | 3.98
34 | YQLGEEALLKFGEDEGFVREEEDR | 5.08
35 | YQLGEEALLKFQEDEGFVREEEDR | 4.59
36 | YQLGEEALLKFHEDEGFVREEEDR | 4.75
37 | YQLGEEALLKFLEDEGFVREEEDR | 4.4
38 | YQLGEEALLKFNEDEGFVREEEDR | 5.17
39 | YQLGEEALLIFREDEGFVREEEDR | 3.35
40 | YQLGEEALLPFREDEGFVREEEDR | 5.59
41 | YQLGEEALLGFREDEGFVREEEDR | 5.52
42 | YQLGEEALLVFREDEGFVREEEDR | 2.88
43 | YQLGEEALLHFREDEGFVREEEDR | 4.74
44 | YQLGEEALLYFREDEGFVREEEDR | 3.94
45 | YQLGEEALLEFREDEGFVREEEDR | 5.37
46 | YQLGEEALLWFREDEGFVREEEDR | 2.25
47 | YQLGEEALLCFREDEGFVREEEDR | 3.37
48 | YQLGEEALLQFREDEGFVREEEDR | 4.83

Row | Variant | protein stability index
49 | YQLGEEALLMFREDEGFVREEEDR | 3.59
50 | YQLGEEALLFFREDEGFVREEEDR | 1.64
51 | YQLGEEALLSFREDEGFVREEEDR | 4.43
52 | YQLGEEALLRFREDEGFVREEEDR | 4.09
53 | YQLGEEALLLFREDEGFVREEEDR | 3.1
54 | YQLGEEALLTFREDEGFVREEEDR | 4.57
55 | YQLGEEALLAFREDEGFVREEEDR | 4.01
56 | YQLGEEALLNFREDEGFVREEEDR | 5.07
57 | YQLGEEALLDFREDEGFVREEEDR | 5.55
58 | YQLGEEARLKFREDEGFVREEEDR | 5.13
59 | YQLGEEAILKFREDEGFVREEEDR | 5.21
60 | YQLGEEAFLKFREDEGFVREEEDR | 4.43
61 | YQLGEEAELKFREDEGFVREEEDR | 5.5
62 | YQLGEEAGLKFREDEGFVREEEDR | 5.48
63 | YQLGEEAWLKFREDEGFVREEEDR | 3.55
64 | YQLGEEAQLKFREDEGFVREEEDR | 5.65
65 | YQLGEEAVLKFREDEGFVREEEDR | 5.58
66 | YQLGEEAPLKFREDEGFVREEEDR | 5.13
67 | YQLGEEAALKFREDEGFVREEEDR | 4.93
68 | YQLGEEASLKFREDEGFVREEEDR | 5.47
69 | YQLGEEACLKFREDEGFVREEEDR | 4.98
70 | YQLGEEAKLKFREDEGFVREEEDR | 5.04
71 | YQLGEEAMLKFREDEGFVREEEDR | 4.56
72 | YQLGEEADLKFREDEGFVREEEDR | 5.6

Row | Variant | protein stability index
73 | YQLGEEANLKFREDEGFVREEEDR | 5.5
74 | YQLGEEATLKFREDEGFVREEEDR | 4.88
75 | YQLGEEAYLKFREDEGFVREEEDR | 5.21
76 | YQLGEEAHLKFREDEGFVREEEDR | 5.62
77 | YQLGEEALLKFREVEGFVREEEDR | 3.39
78 | YQLGEEALLKFREPEGFVREEEDR | 3.16
79 | YQLGEEALLKFREKEGFVREEEDR | 3.45
80 | YQLGEEALLKFRECEGFVREEEDR | 4
81 | YQLGEEALLKFREWEGFVREEEDR | 2.81
82 | YQLGEEALLKFREQEGFVREEEDR | 3.88
83 | YQLGEEALLKFRETEGFVREEEDR | 3.98
84 | YQLGEEALLKFREGEGFVREEEDR | 3.45
85 | YQLGEEALLKFREFEGFVREEEDR | 3.78
86 | YQLGEEALLKFRENEGFVREEEDR | 3.98
87 | YQLGEEALLKFREYEGFVREEEDR | 3.59
88 | YQLGEEALLKFRESEGFVREEEDR | 3.56
89 | YQLGEEALLKFREMEGFVREEEDR | 4.27
90 | YQLGEEALLKFREREGFVREEEDR | 3.58
91 | YQLGEEALLKFRELEGFVREEEDR | 4.08
92 | YQLGEEALLKFREIEGFVREEEDR | 4
93 | YQLGEEALLKFREHEGFVREEEDR | 3.64
94 | YQLGEEALLKFREEEGFVREEEDR | 4.18
95 | YQLGEEALLKFREAEGFVREEEDR | 3.32
96 | YQLGEEALLKFREDDGFVREEEDR | 4.15

Row | Variant | protein stability index
97 | YQLGEEALLKFREDKGFVREEEDR | 4.16
98 | YQLGEEALLKFREDAGFVREEEDR | 3.83
99 | YQLGEEALLKFREDIGFVREEEDR | 3.83
100 | YQLGEEALLKFREDHGFVREEEDR | 3.87
101 | YQLGEEALLKFREDGGFVREEEDR | 4.42
102 | YQLGEEALLKFREDFGFVREEEDR | 3.83
103 | YQLGEEALLKFREDCGFVREEEDR | 3.86
104 | YQLGEEALLKFREDLGFVREEEDR | 3.88
105 | YQLGPEALLKFREDEGFVREEEDR | 4.11
106 | YQLGTEALLKFREDEGFVREEEDR | 4.2
107 | YQLGWEALLKFREDEGFVREEEDR | 1.63
108 | YQLGVEALLKFREDEGFVREEEDR | 3.86
109 | YQLGQEALLKFREDEGFVREEEDR | 3.92
110 | YQLGSEALLKFREDEGFVREEEDR | 4.38
111 | YQLGREALLKFREDEGFVREEEDR | 3.48
112 | YQLGYEALLKFREDEGFVREEEDR | 3.21
113 | YQLGEEALLKYREDEGFVREEEDR | 5.46
114 | YQLGEEALLKGREDEGFVREEEDR | 5.61
115 | YQLGEEALLKLREDEGFVREEEDR | 5.38
116 | YQLGEEALLKHREDEGFVREEEDR | 5.21
117 | YQLGEEALLKMREDEGFVREEEDR | 4.44
118 | YQLGEEALLKEREDEGFVREEEDR | 5.67
119 | YQLGEEALLKRREDEGFVREEEDR | 5.8
120 | YQLGEEALLKIREDEGFVREEEDR | 5.12

Row | Variant | protein stability index
121 | YQLGEEALLKWREDEGFVREEEDR | 4.21
122 | YQLGEEALLKVREDEGFVREEEDR | 5.35
123 | YQLGEEALLKKREDEGFVREEEDR | 5.48
124 | YQLGEEALLKCREDEGFVREEEDR | 4.63
125 | YQLGEEALLKAREDEGFVREEEDR | 4.72
126 | YQLGEEALLKDREDEGFVREEEDR | 5.83
127 | YQLGEEALLKTREDEGFVREEEDR | 5.27
128 | YQLGEEALLKPREDEGFVREEEDR | 5.57
129 | YQLGEEALLKQREDEGFVREEEDR | 5.1
130 | YQLGEEALLKSREDEGFVREEEDR | 5.44
131 | YQLGEEALLKNREDEGFVREEEDR | 5.75
132 | YQLGEEALRKFREDEGFVREEEDR | 4.41
133 | YQLGEEALHKFREDEGFVREEEDR | 4.96
134 | YQLGEEALKKFREDEGFVREEEDR | 4.57
135 | YQLGEEALFKFREDEGFVREEEDR | 4.36
136 | YQLGEEALTKFREDEGFVREEEDR | 5.15
137 | YQLGEEALSKFREDEGFVREEEDR | 5.05
138 | YQLGEEALAKFREDEGFVREEEDR | 4.88
139 | YQLGEEALQKFREDEGFVREEEDR | 4.9
140 | YQLGEEALMKFREDEGFVREEEDR | 4.84
141 | YQLGEEALNKFREDEGFVREEEDR | 4.17
142 | YQLGEEALEKFREDEGFVREEEDR | 5.37
143 | YQLGEEALCKFREDEGFVREEEDR | 4.92
144 | YQLGEEALGKFREDEGFVREEEDR | 5.03

Row | Variant | protein stability index
145 | YQLGEEALWKFREDEGFVREEEDR | 4.01
146 | YQLGEEALYKFREDEGFVREEEDR | 5.09
147 | YQLGEEALVKFREDEGFVREEEDR | 5.15
148 | YQLGEEALIKFREDEGFVREEEDR | 5
149 | YQLGEEALPKFREDEGFVREEEDR | 5.09
150 | YQLGEEALDKFREDEGFVREEEDR | 5.87
151 | YQLGEEALLKFRWDEGFVREEEDR | 2.39
152 | YQLGEEALLKFRPDEGFVREEEDR | 4.22
153 | YQLGEEALLKFRCDEGFVREEEDR | 2.42
154 | YQLGEEALLKFRTDEGFVREEEDR | 4.43
155 | YQLGEEALLKFRNDEGFVREEEDR | 4.5
156 | YQLGEEALLKFRFDEGFVREEEDR | 3.63
157 | YQLGEEALLKFRGDEGFVREEEDR | 3.71
158 | YQLGEEALLKFRVDEGFVREEEDR | 3.81
159 | YQLGEEALLKFRYDEGFVREEEDR | 4.02
160 | YQLGEEALLKFRRDEGFVREEEDR | 4.54
161 | YQLGEEALLKFRQDEGFVREEEDR | 4.3
162 | YQLGEEALLKFRKDEGFVREEEDR | 4
163 | YQLGEEALLKFRLDEGFVREEEDR | 4.45
164 | YQLGEEALLKFRIDEGFVREEEDR | 3.32
165 | YQLGEEALLKFRDDEGFVREEEDR | 4.11
166 | YQLGEEALLKFRHDEGFVREEEDR | 3.96
167 | YQLGEEALLKFRADEGFVREEEDR | 3.23
168 | YQLGEEALLKFRMDEGFVREEEDR | 3.84

Row | Variant | protein stability index
169 | YQLGEEALLKFRSDEGFVREEEDR | 3.37
170 | YQLGETALLKFREDEGFVREEEDR | 4.32
171 | YQLGEYALLKFREDEGFVREEEDR | 3.04
172 | YQLGEWALLKFREDEGFVREEEDR | 1.97
173 | YQLGERALLKFREDEGFVREEEDR | 3.46
174 | YQLGESALLKFREDEGFVREEEDR | 4.67
175 | YQLGEAALLKFREDEGFVREEEDR | 4.31
176 | YQLGEVALLKFREDEGFVREEEDR | 2.93
177 | YQLGEDALLKFREDEGFVREEEDR | 4.67
178 | YQLGENALLKFREDEGFVREEEDR | 4.43
179 | YQLGEHALLKFREDEGFVREEEDR | 4.33
180 | YQLGEKALLKFREDEGFVREEEDR | 4
181 | YQLGECALLKFREDEGFVREEEDR | 3.51
182 | YQLGEQALLKFREDEGFVREEEDR | 4.23
183 | YQLGEIALLKFREDEGFVREEEDR | 2.93
184 | YQLGEGALLKFREDEGFVREEEDR | 4.32
185 | YQLGEFALLKFREDEGFVREEEDR | 2.4
186 | YQLGELALLKFREDEGFVREEEDR | 3.32
187 | YQLGEPALLKFREDEGFVREEEDR | 4.92
188 | YQLGEMALLKFREDEGFVREEEDR | 3.99
